Source: article PMC4920197, “SMN and coilin negatively regulate dyskerin association with telomerase RNA” (Biology Open, 2016)

Target: T1, GFP-tagged SMN E134K (human, UniProt Q16637 1-294, E134K)
T1 construct: survivor of motor neuron protein (SMN) with the clinically defined SMA patient mutation E134K, made from GFP-SMN; source: HeLa, transfected (FuGENE HD), in lysate
Experiment: co-IP; HeLa cells transfected 24 h with GFP vector or GFP-tagged coilin or SMN constructs; lysate in mRIPA buffer immunoprecipitated with anti-GFP antibody; endogenous dyskerin or NAF1 detected by western blot
Settings: partners not purified

T1 sequence (Q16637 whole entry E134K): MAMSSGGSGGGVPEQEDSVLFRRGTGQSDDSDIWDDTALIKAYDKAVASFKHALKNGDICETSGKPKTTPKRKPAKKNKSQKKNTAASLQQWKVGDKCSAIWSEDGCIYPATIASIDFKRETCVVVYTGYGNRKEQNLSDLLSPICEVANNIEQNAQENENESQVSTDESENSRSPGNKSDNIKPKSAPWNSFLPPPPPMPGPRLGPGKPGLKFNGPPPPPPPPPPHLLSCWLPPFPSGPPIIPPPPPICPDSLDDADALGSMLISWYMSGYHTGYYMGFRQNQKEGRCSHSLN

decrease of dyskerin in the SMN complex relative to WT SMN: ~50%
B1: dyskerin (natural protein, human (endogenous in HeLa), UniProt O60832 1-514, looked up)
chain: MADAEVIILPKKHKKKKERKSLPEEDVAEIQHAEEFLIKPESKVAKLDTSQWPLLLKNFDKLNVRTTHYTPLACGSNPLKREIGDYIRTGFINLDKPSNPSSHEVVAWIRRILRVEKTGHSGTLDPKVTGCLIVCIERATRLVKSQQSAGKEYVGIVRLHNAIEGGTQLSRALETLTGALFQRPPLIAAVKRQLRVRTIYESKMIEYDPERRLGIFWVSCEAGTYIRTLCVHLGLLLGVGGQMQELRRVRSGVMSEKDHMVTMHDVLDAQWLYDNHKDESYLRRVVYPLEKLLTSHKRLVMKDSAVNAICYGAKIMLPGVLRYEDGIEVNQEIVVITTKGEAICMAIALMTTAVISTCDHGIVAKIKRVIMERDTYPRKWGLGPKASQKKLMIKQGLLDKHGKPTDSTPATWKQEYVDYSESAKKEVVAEVVKAPQVVAEAAKTAKRKRESESESDETPPAAPQLIKKEKKKSKKDKKAKAGLESGAEPGDGDSDTTKKKKKKKKAKEVELVSE
notes: dyskerin, endogenous in HeLa cells; also called telomerase and box H/ACA scaRNP core protein dyskerin; source: endogenous, HeLa lysate
